Consider 3 molecules from patent US20250304681A1 (BEIJING ECHO BIOTECH, published 2025).

One test concerns the target T1, Human-RAGE-ECD-Fc(IgG1) (human).
T1 construct: also called P38406
Briefly: ELISA, antigen coated at 2 ug/mL, anti-human kappa+lambda-HRP. (An ELISA detects its analyte on a solid surface through an enzyme-linked reagent.)

A further test concerns the target T2, Cyno-RAGE-ECD-Fc(IgG1) (monkey (cyno)).
T2 construct: also called P38408
Put plainly: ELISA, antigen with and without NHS-biotin label coated at 4 ug/mL.

A further test has as its target T3, Mouse-RAGE-ECD-Fc(IgG1) (mouse).
T3 construct: also called P38410
Described as above.

A further test addresses T4, Human-RAGE-ECD-His (human, UniProt Q15109 23-342).
T4 construct: also called P38405
The test is described as above.

A further test deals with T5, Mouse-RAGE-ECD-His (mouse, UniProt Q62151 23-340).
T5 construct: also called P38409
T5 sequence (Q62151 other isoform, or with tags, fused parts or gaps): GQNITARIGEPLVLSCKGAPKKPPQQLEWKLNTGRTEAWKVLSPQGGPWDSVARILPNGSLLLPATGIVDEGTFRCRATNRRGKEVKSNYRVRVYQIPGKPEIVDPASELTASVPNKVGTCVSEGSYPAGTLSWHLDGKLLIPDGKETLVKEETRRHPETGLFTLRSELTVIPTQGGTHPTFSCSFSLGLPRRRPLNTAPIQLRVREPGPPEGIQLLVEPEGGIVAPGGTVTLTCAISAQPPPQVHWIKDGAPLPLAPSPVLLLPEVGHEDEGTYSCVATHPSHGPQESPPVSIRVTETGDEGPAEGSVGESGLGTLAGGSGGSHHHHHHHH
Described as above.

The next test concerns the target T6, Cyno-RAGE-ECD-His (monkey (cyno), UniProt Q15109 23-342 (human entry)).
T6 construct: also called P38407
T6 chain: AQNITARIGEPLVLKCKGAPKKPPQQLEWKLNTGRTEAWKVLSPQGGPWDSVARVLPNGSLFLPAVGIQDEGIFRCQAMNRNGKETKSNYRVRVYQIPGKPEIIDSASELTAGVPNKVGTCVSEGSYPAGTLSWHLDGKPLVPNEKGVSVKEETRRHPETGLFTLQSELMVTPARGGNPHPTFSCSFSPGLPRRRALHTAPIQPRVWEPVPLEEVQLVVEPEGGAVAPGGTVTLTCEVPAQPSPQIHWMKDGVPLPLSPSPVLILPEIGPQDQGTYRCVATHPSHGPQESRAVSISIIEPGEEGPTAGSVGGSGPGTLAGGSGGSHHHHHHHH
Described as above.

Test [1] concerns the target T7, RAGE(1-404)-3xflag-eBFP (plasmid p605) on HepG2 cells.
T7 construct: also called p605-HepG2 cells; p605 cells
Put plainly: flow cytometry on fixed p605-HepG2 cells, 1 ug and 5 ug in 100 uL, FITC anti-HA detection. The method, then: (5) 1 μg and 5 μg of antiRAGE(A90)-Fc were respectively added to 100 μL of the incubation system to incubate at 4° C. for 2 h. The cells were washed and resuspended with 0.5% BSA diluted in PBS.
(6) 1 μL of FITC-conjugated antiHA antibody was respectively added to cells without A90-Fc antibody and cells incubated with A90-Fc antibody to incubate at room temperature for 1 h. The cells were washed twice with PBS, and then resuspended with PBS.
A general note: A flow cytometer gives signals particle by particle.

In test [2] the target is T8, RAGE(1-404)-3xflag-mCherry (plasmid p318) on 293F cells (human).
T8 construct: also called p318 cells
Put plainly: flow cytometry on fixed p318-293F cells, 5 ug scFv in 100 uL, FITC anti-HA detection.

T3 sequence (chain, as listed by the source limits assumed): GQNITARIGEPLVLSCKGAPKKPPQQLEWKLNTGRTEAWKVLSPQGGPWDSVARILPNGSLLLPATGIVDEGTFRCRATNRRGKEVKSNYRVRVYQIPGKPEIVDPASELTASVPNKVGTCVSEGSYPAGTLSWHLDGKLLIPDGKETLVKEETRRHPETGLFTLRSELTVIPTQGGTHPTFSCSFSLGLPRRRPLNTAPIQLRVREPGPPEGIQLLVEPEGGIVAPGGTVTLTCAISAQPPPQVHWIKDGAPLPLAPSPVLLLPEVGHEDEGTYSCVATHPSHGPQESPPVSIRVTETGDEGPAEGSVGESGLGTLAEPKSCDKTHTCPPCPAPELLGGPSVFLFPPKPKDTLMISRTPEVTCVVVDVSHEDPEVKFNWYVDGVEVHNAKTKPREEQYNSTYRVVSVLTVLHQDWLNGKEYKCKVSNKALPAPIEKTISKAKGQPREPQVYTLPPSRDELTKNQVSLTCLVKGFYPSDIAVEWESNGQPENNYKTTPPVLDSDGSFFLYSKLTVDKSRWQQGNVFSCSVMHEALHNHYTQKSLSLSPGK

B1: h11E6.16 (antibody, human IgG1, kappa, V domains shown)
VH: EIQLVQSGAEVKKPGASVKVSCKASGYTFTNFGMNWVRQAPGQGLEWMGYINTNTGESIYSEEFKGRFTFTLDTSTSTAYMELSSLRSEDTAVYFCARSRMVTAYGMDYWGQGTSVTVSS
VL: EIVMTQSPATLSLSPGERATLSCKASQNVGTAVAWYQQKPGQSPRLLIFSASNRYTGVPARFSGSGSGTDFTLTISSLQSEDFAVYFCQQYSSYPLTFGQGTKLEIKR
notes: also called h11E6.16 antibody (P38411); P38411
In the case of B1, the binding result with Human-RAGE-ECD-Fc(IgG1), with Cyno-RAGE-ECD-Fc(IgG1), in the test with Mouse-RAGE-ECD-Fc(IgG1), with Human-RAGE-ECD-His, with Mouse-RAGE-ECD-His and with Cyno-RAGE-ECD-His was “binds” in each case.

B2: antiRAGE(A90)-Fc (antibody, human IgG1, kappa)
heavy: not shown
light: NIQLTQSPSTLSASVGDRVTITCRASQSISSWLAWYQQKPGKAPKLLIYQASSLESGVPSRFSGSGSGTEFTLTIRSLQPEDFAVYFCQQYKDYPLTFGGGTKVDIKRTVAAPSVFIFPPSDEQLKSGTASVVCLLNNFYPREAKVQWKVDNALQSGNSQESVTEQDSKDSTYSLSSTLTLSKADYEKHKVYACEVTHQGLSSPVTKSFNRGEC
notes: also called antiRAGE(A90)-Fc-G4S-HA; antiRAGE-Fc-G4S-HA-ALFA
Turning to B2, in test [1], the binding result is “binds”.

B3: 6xHis-antiRAGE(A90)-scFv-G4S-HA (scFv)
scFv: HHHHHHQVQLVQSGAEVKKPGSSVKVSCKASGGTFNNYAINWARQAPGQGLEWMGRIVPFFDVTNYAQKFQGRVTITADKSTSTAYMELSSLRSEDTAIYYCAIGSFNWNSGAFDIWGQGTPVTVSSGGGGSGGGGSGGGGSNIQLTQSPSTLSASVGDRVTITCRASQSISSWLAWYQQKPGKAPKLLIYQASSLESGVPSRFSGSGSGTEFTLTIRSLQPEDFAVYFCQQYKDYPLTFGGGTKVDIKGGGGSYPYDVPDYA
notes: also called antiRAGE scFv antibody; antiRAGE-scFv
For B3, the binding result in test [2] is “binds”.
